Experimental data published in patent publication US20260209386A1 (MYTHIC THERAPEUTICS, published 2026).
Positions count from the first letter of the chain named.

T1: Human PTK7 Protein, His Tag, Acro Biosystems (human, UniProt Q13308 31-704)
T1 construct: Bought recombinant protein; also called CCK4; not shown: His tag
T1 sequence: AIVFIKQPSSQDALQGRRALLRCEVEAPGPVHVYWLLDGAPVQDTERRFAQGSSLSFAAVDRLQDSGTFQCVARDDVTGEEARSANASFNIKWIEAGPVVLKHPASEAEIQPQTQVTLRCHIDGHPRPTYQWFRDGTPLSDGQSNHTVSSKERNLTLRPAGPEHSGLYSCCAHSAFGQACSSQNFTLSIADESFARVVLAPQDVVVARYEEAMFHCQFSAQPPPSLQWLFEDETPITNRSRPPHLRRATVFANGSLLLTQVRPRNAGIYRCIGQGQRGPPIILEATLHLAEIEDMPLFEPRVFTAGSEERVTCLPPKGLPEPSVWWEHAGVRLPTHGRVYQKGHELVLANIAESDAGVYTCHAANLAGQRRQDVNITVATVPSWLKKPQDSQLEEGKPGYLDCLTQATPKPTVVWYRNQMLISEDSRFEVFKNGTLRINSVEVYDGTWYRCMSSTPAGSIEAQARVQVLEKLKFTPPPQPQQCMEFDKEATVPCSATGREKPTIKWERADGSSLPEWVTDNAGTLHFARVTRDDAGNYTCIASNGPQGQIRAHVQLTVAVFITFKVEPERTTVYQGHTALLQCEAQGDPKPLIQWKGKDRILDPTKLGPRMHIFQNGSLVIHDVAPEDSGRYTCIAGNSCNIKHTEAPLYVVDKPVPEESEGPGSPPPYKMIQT

T2: Human PTK7 Protein, His Tag, Acro Biosystems (human, UniProt Q13308 31-704)
T2 construct: Bought protein; also called CCK4; not shown: His tag
T2 sequence: T1 sequence

B1: MYT11277 (antibody, V domains shown)
VH: EVQLVESGGGLVQPGGSLRLSCTASGIDLSRYSMGWVRQAPGKGLEWVGIISYGGSTYYASWHKGRFTISRDTSKNTVYLQMNSLRAEDTAVYFCARVGYPGYSGYGYAFDAFDPWGQGTLVTVSS
VL: EIVMTQSPSTLSASVGDRVIITCQSSKSVYNDNWLSWYQQKPGKAPKLLIYGASTLASGVPSRFSGSGSGAEFTLTISSLQPDDFATYYCAGGYSSSSDNGFGQGTKLTVL
notes: MYT9792 variant, His at VH 63 (H2 14)
B2: MYT11278 (antibody, V domains shown)
VH: B1 VH with H63A, K64H
VL: B1 VL
notes: MYT9792 variant, His at VH 64 (H2 15)
B3: MYT11286 (antibody, V domains shown)
VH: B1 VH with H63A, G102H
VL: B1 VL
notes: MYT9792 variant, His at VH 102 (H3 07)
B4: MYT11288 (antibody, V domains shown)
VH: B1 VH with H63A, S104H
VL: B1 VL
notes: MYT9792 variant, His at VH 104 (H3 09)
B5: MYT11290 (antibody, V domains shown)
VH: B1 VH with H63A, Y106H
VL: B1 VL
B6: MYT11298 (antibody, V domains shown)
VH: B1 VH with H63A, D114H
VL: B1 VL
B7: MYT11299 (antibody, V domains shown)
VH: B1 VH with H63A, P115H
VL: B1 VL
B8: MYT11300 (antibody, V domains shown)
VH: B1 VH with H63A, F94Y
VL: B1 VL
B9: MYT11301 (antibody, V domains shown)
VH: B1 VH with D28A, H63A
VL: B1 VL
notes: MYT9792 variant, Ala at VH 28 (H1 03)
B10: MYT11304 (antibody, V domains shown)
VH: B1 VH with H63A
VL: B1 VL with Q24H
notes: MYT9792 variant, His at VL 24 (L1 01)
B11: MYT11306 (antibody, V domains shown)
VH: B1 VH with H63A
VL: B1 VL with S26H
notes: MYT9792 variant, His at VL 26 (L1 03)
B12: MYT11308 (antibody, V domains shown)
VH: B1 VH with H63A
VL: B1 VL with S28H
notes: MYT9792 variant, His at VL 28 (L1 05)
B13: MYT11311 (antibody, V domains shown)
VH: B1 VH with H63A
VL: B1 VL with N31H
notes: MYT9792 variant, His at VL 31 (L1 08)
B14: MYT11312 (antibody, V domains shown)
VH: B1 VH with H63A
VL: B1 VL with D32H
notes: MYT9792 variant, His at VL 32 (L1 09)
B15: MYT11313 (antibody, V domains shown)
VH: B1 VH with H63A
VL: B1 VL with N33H
notes: MYT9792 variant, His at VL 33 (L1 10)
B16: MYT11314 (antibody, V domains shown)
VH: B1 VH with H63A
VL: B1 VL with W34H
notes: MYT9792 variant, His at VL 34 (L1 11)
B17: MYT11317 (antibody, V domains shown)
VH: B1 VH with H63A
VL: B1 VL with G52H
notes: MYT9792 variant, His at VL 52 (L2 01)
B18: MYT11318 (antibody, V domains shown)
VH: B1 VH with H63A
VL: B1 VL with A53H
notes: MYT9792 variant, His at VL 53 (L2 02)
B19: MYT11319 (antibody, V domains shown)
VH: B1 VH with H63A
VL: B1 VL with S54H
notes: MYT9792 variant, His at VL 54 (L2 03)
B20: MYT11320 (antibody, V domains shown)
VH: B1 VH with H63A
VL: B1 VL with T55H
notes: MYT9792 variant, His at VL 55 (L2 04)
B21: MYT11323 (antibody, V domains shown)
VH: B1 VH with H63A
VL: B1 VL with S58H
notes: MYT9792 variant, His at VL 58 (L2 07)
B22: MYT11329 (antibody, V domains shown)
VH: B1 VH with H63A
VL: B1 VL with S96H
notes: MYT9792 variant, His at VL 96 (L3 06)
B23: MYT11334 (antibody, V domains shown)
VH: B1 VH with H63A
VL: B1 VL with G101H
notes: MYT9792 variant, His at VL 101 (L3 11)
B24: MYT11336 (antibody, V domains shown)
VH: B1 VH with H63A
VL: B1 VL with D32A
notes: MYT9792 variant, Ala at VL 32 (L1 09)
B25: MYT11338 (antibody, V domains shown)
VH: B1 VH with H63A
VL: B1 VL with N100A
notes: MYT9792 variant, Ala at VL 100 (L3 10)
B26: MYT11181 (antibody, V domains shown)
VH: EVQLVESGGGLVQPGGSLRLSCTASGHDLSSYVMGWVRQAPGKGLEWVGYIYGGGGTYYATWARGRFTISRDTSKNTVYLQMNSLRAEDTAVYFCARAAADFYFNLWGQGTLVTVSS
VL: EIVMTQSPSTLSASVGDRVIITCQASQSISSYLAWYQQKPGKAPKLLIYDISDLASGVPSRFSGSGSGAEFTLTISSLQPDDFATYYCQSYYWISNSGAAFGQGTKLTVL
notes: HC variant of MYT9460, sub at HCV pos 27 (H1 02)
B27: MYT11183 (antibody, V domains shown)
VH: B26 VH with H27I, L29H
VL: B26 VL
notes: HC variant of MYT9460, sub at HCV pos 29 (H1 04)
B28: MYT11185 (antibody, V domains shown)
VH: B26 VH with H27I, S31H
VL: B26 VL
notes: HC variant of MYT9460, sub at HCV pos 31 (H1 06)
B29: MYT11186 (antibody, V domains shown)
VH: B26 VH with H27I, Y32H
VL: B26 VL
notes: HC variant of MYT9460, sub at HCV pos 32 (H1 07)
B30: MYT11187 (antibody, V domains shown)
VH: B26 VH with H27I, V33H
VL: B26 VL
notes: HC variant of MYT9460, sub at HCV pos 33 (H1 08)
B31: MYT11188 (antibody, V domains shown)
VH: B26 VH with H27I, M34H
VL: B26 VL
notes: HC variant of MYT9460, sub at HCV pos 34 (H1 09)
B32: MYT11198 (antibody, V domains shown)
VH: B26 VH with H27I, Y58H
VL: B26 VL
notes: HC variant of MYT9460, sub at HCV pos 58 (H2 09)
B33: MYT11199 (antibody, V domains shown)
VH: B26 VH with H27I, Y59H
VL: B26 VL
notes: HC variant of MYT9460, sub at HCV pos 59 (H2 10)
B34: MYT11200 (antibody, V domains shown)
VH: B26 VH with H27I, A60H
VL: B26 VL
notes: HC variant of MYT9460, sub at HCV pos 60 (H2 11)
B35: MYT11201 (antibody, V domains shown)
VH: B26 VH with H27I, T61H
VL: B26 VL
notes: HC variant of MYT9460, sub at HCV pos 61 (H2 12)
B36: MYT11202 (antibody, V domains shown)
VH: B26 VH with H27I, W62H
VL: B26 VL
notes: HC variant of MYT9460, sub at HCV pos 62 (H2 13)
B37: MYT11203 (antibody, V domains shown)
VH: B26 VH with H27I, A63H
VL: B26 VL
notes: HC variant of MYT9460, sub at HCV pos 63 (H2 14)
B38: MYT11205 (antibody, V domains shown)
VH: B26 VH with H27I, G65H
VL: B26 VL
notes: HC variant of MYT9460, sub at HCV pos 65 (H2 16)
B39: MYT11206 (antibody, V domains shown)
VH: B26 VH with H27I, A96H
VL: B26 VL
notes: HC variant of MYT9460, sub at HCV pos 96 (H3 01)

biological target: T1, Human PTK7 Protein, His Tag, Acro …; test: BLI, anti-human Fc capture, 50 nM PTK7; 2 = substantially similar binding relative to parent

Binder | binding result
B1 | binds
B2 | binds
B3 | binds
B4 | binds
B5 | binds
B6 | binds
B7 | binds
B8 | binds
B9 | binds
B10 | binds
B11 | binds
B12 | binds
B13 | binds
B14 | binds
B15 | binds
B16 | binds
B17 | binds
B18 | binds
B19 | binds
B20 | binds
B21 | binds
B22 | binds
B23 | binds
B24 | binds
B25 | binds

biological target: T2, Human PTK7 Protein, His Tag, Acro …; test: BLI (Octet), antibody on anti-human Fc sensor, 50 nM PTK7, dissociation at pH 7.4 or 5.4; 2 = substantially similar binding relative to parent

Binder | binding result
B26 | binds
B27 | binds
B28 | binds
B29 | binds
B30 | binds
B31 | binds
B32 | binds
B33 | binds
B34 | binds
B35 | binds
B36 | binds
B37 | binds
B38 | binds
B39 | binds
